One protein from paper PMC5513672 (Chemical research in toxicology, 2017) can be followed below.

The series deals with the molecule itself. The experiment in a line: native gel or EMSA. In general terms: Mobility shift assays separate free from complexed probe on a gel.

B1: Human recombinant ALDH2 protein (mitochondrial aldehyde dehydrogenase), untreated (enzyme, UniProt P05091 18-517, looked up)
chain: SAAATQAVPAPNQQPEVFCNQIFINNEWHDAVSRKTFPTVNPSTGEVICQVAEGDKEDVDKAVKAARAAFQLGSPWRRMDASHRGRLLNRLADLIERDRTYLAALETLDNGKPYVISYLVDLDMVLKCLRYYAGWADKYHGKTIPIDGDFFSYTRHEPVGVCGQIIPWNFPLLMQAWKLGPALATGNVVVMKVAEQTPLTALYVANLIKEAGFPPGVVNIVPGFGPTAGAAIASHEDVDKVAFTGSTEIGRVIQVAAGSSNLKRVTLELGGKSPNIIMSDADMDWAVEQAHFALFFNQGQCCCAGSRTFVQEDIYDEFVERSVARAKSRVVGNPFDSKTEQGPQVDETQFKKILGYINTGKQEGAKLLCGGGIAADRGYFIQPTVFGDVQDGMTIAKEEIFGPVMQILKFKTIEEVVGRANNSTYGLAAAVFTKDLDKANYLSQALQAGTVWVNCYDVFGAQSPFGGYKMSGSGRELGEYGLQAYTEVKTVTVKVPQKNS
In the case of B1, the binding result is given as “binds”.
